Each block holds one substance with its values, some of them ahead of it.
Key:
[1] = biological target: shClpP2 (first 49 residues removed, S131A) (Streptomyces hawaiiensis NRRL 15010); experiment: cryo-EM structure; apo shClpP1P2, C7 symmetry imposed, 2.34 Å (free shClpP1P2 particles of the ClpC1 sample; a second reconstruction at 2.88 Å from the shClpP1P2 sample); SEC buffer 20 mM HEPES, 150 mM KCl, 5% glycerol, pH 7.5
[2] = biological target: shClpP1 alone (sample of Fig. S1A) (Streptomyces hawaiiensis NRRL 15010); experiment: not stated; Fig. S1A (not shown): purified proteins in solution; a shClpP1 sample was also put on cryo-EM grids
[3] = biological target: ClpC1 (NTD residues 1-156 removed, E284A/E622A/F440A) (Streptomyces hawaiiensis NRRL 15010); experiment: cryo-EM structure; ClpC1 added to the pre-formed shClpP1P2 complex with fluorescein-labeled casein and ATP; conformations A (2.94 Å) and B (3.0 Å), C1
[4] = biological target: shClpP1 (first 29 residues removed, S113A) (Streptomyces hawaiiensis NRRL 15010); experiment: cryo-EM structure; apo shClpP1P2, C7 symmetry imposed, 2.34 Å (free shClpP1P2 particles of the ClpC1 sample; a second reconstruction at 2.88 Å from the shClpP1P2 sample); SEC buffer 20 mM HEPES, 150 mM KCl, 5% glycerol, pH 7.5

- stoichiometry N [1]: 7
Substance: shClpP2 (first 49 residues removed, S131A) (enzyme)

- stoichiometry N [2]: 7
Substance: shClpP1 alone (sample of Fig. S1A) (enzyme)

- stoichiometry N [3]: 6
Substance: ClpC1 (NTD residues 1-156 removed, E284A/E622A/F440A) (enzyme)

- stoichiometry N [4]: 7
Substance: shClpP1 (first 29 residues removed, S113A) (enzyme)

From paper PMC11005422
